According to publication doi:10.1101/2021.05.19.444834:

How the values were obtained:
[1] = target: unmodified C62A ThfA (Thermobifida fusca); test: BLI
[2] = target: doubly dehydrated C62A ThfA (Thermobifida fusca); test: BLI

**Q.** For “maltose binding protein (MBP) fusion to ThfB (enzyme)”, which Kd [1] is on record?
**A.** 28 nM

**Q.** What about the Kd [2] of the same substance?
**A.** 18 nM
